According to PMC3281069:

Molecular target: E2 wild type, E2 subunit (acyltransferase component) of the pyruvate dehydrogenase complex of Geobacillus stearothermophilus (Geobacillus stearothermophilus) (UniProt P11961)
Test: SEC; E2wt on a Superdex200 gel filtration column in Solubility Buffer 2.2 (1x PBS, 50 mM L-glutamine, 50 mM NaCl, 250 mM L-arginine)

stoichiometry N: 60
Substance: E2 wild type, E2 subunit (acyltransferase component) of the pyruvate dehydrogenase complex of Geobacillus stearothermophilus (from UniProt P11961 1-428) (natural protein)
